Laboratory results as given in paper PMC6101569 (Nucleic Acids Research, 2018).

Experiments:
[1] = biological target: H2A-H2B histone dimer from Drosophila melanogaster (Drosophila melanogaster, UniProt P84051 2-121; P02283 2-123); assay: ITC
[2] = biological target: (H3-H4)2 histone tetramer from Drosophila melanogaster (Drosophila melanogaster, UniProt P02299 2-136; P84040 2-103); assay: ITC

B1: APLF acidic domain (APLF^AD), Homo sapiens APLF residues 450-511, wild type (domain or fragment)
chain: DEDNDNVGQPNEYDLNDSFLDDEEEDYEPTDEDSDWEPGKEDEEKEDVEELLKEAKRFMKRK
- Kd [1]: 940 nM
- Kd [2]: 3810 nM
